Laboratory results from patent US20260242419A1, “A CYCLIC PEPTIDE FOR TRAPPING INTERLEUKIN-1 BETA” (Merck Sharp & Dohme LLC, priority 2023, published 2026).
Starred links: 1 amine or outer side, 2 acyl side, 3 side chain; linkers in the order of their positions; H or OH if unused. Non-standard residues stand in square brackets, D forms with d. 3AzaTyrEtNAc = (2S)-3-[6-(2-acetamidoethoxy)-3-pyridyl]-2-amino-propanoic acid, CC(=O)NCCOc1ccc(C[C@H](N[*:1])C(=O)[*:2])cn1; TyrEtNAc = (2S)-3-[4-(2-acetamidoethoxy)phenyl]-2-amino-propanoic acid, CC(=O)NCCOc1ccc(C[C@H](N[*:1])C(=O)[*:2])cc1; dPro(4R-(4-pyridylmethyl)) = O=C(O)[C@H]1C[C@@H](Cc2ccncc2)CN1; Trp(βS-Me,4-F) = C[C@@H](c1c[nH]c2cccc(F)c12)[C@H](N)C(=O)O; 3Aminoazetidine3carboxyl = O=C(C1(N[*:1])CN([*:3])C1)[*:2]; Bip(4'-COOH) = N[C@@H](Cc1ccc(-c2ccc(C(=O)O)cc2)cc1)C(=O)O; Ala(1-bicyclo(1.1.1)pentyl) = N[C@@H](CC12CC(C1)C2)C(=O)O; dPro(4R-Bzl(4-F)) = O=C(O)[C@H]1C[C@@H](Cc2ccc(F)cc2)CN1; Ala(piperazin-1-yl) = N[C@@H](CN1CCNCC1)C(=O)O; Ala(pyrimidin-5-yl) = N[C@@H](Cc1cncnc1)C(=O)O; Phe(4-COOH) = N[C@@H](Cc1ccc(C(=O)O)cc1)C(=O)O; Pro(cis-4-F) = O=C(O)[C@@H]1C[C@H](F)CN1; 4Pal = N[C@@H](Cc1ccncc1)C(=O)O; d(αMeS) = C[C@@](N)(CO)C(=O)O; αMeS = C[C@](N)(CO)C(=O)O; Dab = NCC[C@H](N)C(=O)O; Aib = CC(C)(N)C(=O)O

Target: Recombinant human IL-1β (BioLegend 579404) (human, UniProt P01584 117-269)
Assay: cell-based or functional assay

Row | Binder | MRC5 IC50
1 | cyclo([Bip(4'-COOH)][4Pal][Phe(4-COOH)]G[Pro(cis-4-F)][Trp(βS-Me,4-F)][αMeS]EW[Aib][Ala(pyrimidin-5-yl)]Q[Dab]G[dPro(4R-Bzl(4-F))]) [SEQ ID NO: 22] | 0.027 nM
2 | cyclo([Bip(4'-COOH)][4Pal][Phe(4-COOH)]G[Pro(cis-4-F)][Trp(βS-Me,4-F)][Aib]EW[Aib][4Pal]Q[Dab]G[dPro(4R-Bzl(4-F))]) (SMILES C[C@@H](c1c[nH]c2cccc(F)c12)[C@@H]1NC(=O)[C@@H]2C[C@H](F)CN2C(=O)CNC(=O)[C@H](Cc2ccc(C(=O)O)cc2)NC(=O)[C@H](Cc2ccncc2)NC(=O)[C@H](Cc2ccc(-c3ccc(C(=O)O)cc3)cc2)NC(=O)[C@H]2C[C@@H](Cc3ccc(F)cc3)CN2C(=O)CNC(=O)[C@H](CCN)NC(=O)[C@H](CCC(N)=O)NC(=O)[C@H](Cc2ccncc2)NC(=O)C(C)(C)NC(=O)[C@H](Cc2c[nH]c3ccccc23)NC(=O)[C@H](CCC(=O)O)NC(=O)C(C)(C)NC1=O) [SEQ ID NO: 2] | 0.023 nM
3 | cyclo([TyrEtNAc][4Pal][Phe(4-COOH)]G[Pro(cis-4-F)][Trp(βS-Me,4-F)][Aib]SW[Aib][Ala(pyrimidin-5-yl)]Q[Dab]G[dPro(4R-Bzl(4-F))]) [SEQ ID NO: 16] | 0.051 nM
4 | cyclo([Bip(4'-COOH)][4Pal][Phe(4-COOH)]G[Pro(cis-4-F)][Trp(βS-Me,4-F)][Aib]DW[Aib][Ala(pyrimidin-5-yl)]Q[Dab]G[dPro(4R-Bzl(4-F))]) (SMILES C[C@@H](c1c[nH]c2cccc(F)c12)[C@@H]1NC(=O)[C@@H]2C[C@H](F)CN2C(=O)CNC(=O)[C@H](Cc2ccc(C(=O)O)cc2)NC(=O)[C@H](Cc2ccncc2)NC(=O)[C@H](Cc2ccc(-c3ccc(C(=O)O)cc3)cc2)NC(=O)[C@H]2C[C@@H](Cc3ccc(F)cc3)CN2C(=O)CNC(=O)[C@H](CCN)NC(=O)[C@H](CCC(N)=O)NC(=O)[C@H](Cc2cncnc2)NC(=O)C(C)(C)NC(=O)[C@H](Cc2c[nH]c3ccccc23)NC(=O)[C@H](CC(=O)O)NC(=O)C(C)(C)NC1=O) [SEQ ID NO: 17] | 0.029 nM
5 | cyclo([Bip(4'-COOH)][4Pal][Phe(4-COOH)]G[Pro(cis-4-F)][Trp(βS-Me,4-F)][3Aminoazetidine3carboxyl]EW[Aib][Ala(pyrimidin-5-yl)]Q[Dab]G[dPro(4R-Bzl(4-F))]) [SEQ ID NO: 20] | 0.062 nM
6 | cyclo([Bip(4'-COOH)][4Pal][Phe(4-COOH)]G[Pro(cis-4-F)][Trp(βS-Me,4-F)][Aib]EW[Aib][4Pal]Q[Dab]G[dPro(4R-(4-pyridylmethyl))]) (SMILES C[C@@H](c1c[nH]c2cccc(F)c12)[C@@H]1NC(=O)[C@@H]2C[C@H](F)CN2C(=O)CNC(=O)[C@H](Cc2ccc(C(=O)O)cc2)NC(=O)[C@H](Cc2ccncc2)NC(=O)[C@H](Cc2ccc(-c3ccc(C(=O)O)cc3)cc2)NC(=O)[C@H]2C[C@@H](Cc3ccncc3)CN2C(=O)CNC(=O)[C@H](CCN)NC(=O)[C@H](CCC(N)=O)NC(=O)[C@H](Cc2ccncc2)NC(=O)C(C)(C)NC(=O)[C@H](Cc2c[nH]c3ccccc23)NC(=O)[C@H](CCC(=O)O)NC(=O)C(C)(C)NC1=O) [SEQ ID NO: 15] | 0.035 nM
7 | cyclo([Bip(4'-COOH)][4Pal][Phe(4-COOH)]G[Pro(cis-4-F)][Trp(βS-Me,4-F)][Aib]EW[Aib][Ala(pyrimidin-5-yl)]Q[Dab]G[dPro(4R-(4-pyridylmethyl))]) (SMILES C[C@@H](c1c[nH]c2cccc(F)c12)[C@@H]1NC(=O)[C@@H]2C[C@H](F)CN2C(=O)CNC(=O)[C@H](Cc2ccc(C(=O)O)cc2)NC(=O)[C@H](Cc2ccncc2)NC(=O)[C@H](Cc2ccc(-c3ccc(C(=O)O)cc3)cc2)NC(=O)[C@H]2C[C@@H](Cc3ccncc3)CN2C(=O)CNC(=O)[C@H](CCN)NC(=O)[C@H](CCC(N)=O)NC(=O)[C@H](Cc2cncnc2)NC(=O)C(C)(C)NC(=O)[C@H](Cc2c[nH]c3ccccc23)NC(=O)[C@H](CCC(=O)O)NC(=O)C(C)(C)NC1=O) [SEQ ID NO: 14] | 0.035 nM
8 | cyclo([3AzaTyrEtNAc][4Pal][Phe(4-COOH)]G[Pro(cis-4-F)][Trp(βS-Me,4-F)][Aib]EW[Aib][Ala(pyrimidin-5-yl)]Q[Dab]G[dPro(4R-Bzl(4-F))]) (SMILES CC(=O)NCCOc1ccc(C[C@@H]2NC(=O)[C@H]3C[C@@H](Cc4ccc(F)cc4)CN3C(=O)CNC(=O)[C@H](CCN)NC(=O)[C@H](CCC(N)=O)NC(=O)[C@H](Cc3cncnc3)NC(=O)C(C)(C)NC(=O)[C@H](Cc3c[nH]c4ccccc34)NC(=O)[C@H](CCC(=O)O)NC(=O)C(C)(C)NC(=O)[C@H]([C@@H](C)c3c[nH]c4cccc(F)c34)NC(=O)[C@@H]3C[C@H](F)CN3C(=O)CNC(=O)[C@H](Cc3ccc(C(=O)O)cc3)NC(=O)[C@H](Cc3ccncc3)NC2=O)cn1) [SEQ ID NO: 12] | 0.072 nM
9 | cyclo([Bip(4'-COOH)][4Pal][Phe(4-COOH)]G[Pro(cis-4-F)][Trp(βS-Me,4-F)][Aib]EW[d(αMeS)][Ala(pyrimidin-5-yl)]Q[Dab]G[dPro(4R-Bzl(4-F))]) (SMILES C[C@@H](c1c[nH]c2cccc(F)c12)[C@@H]1NC(=O)[C@@H]2C[C@H](F)CN2C(=O)CNC(=O)[C@H](Cc2ccc(C(=O)O)cc2)NC(=O)[C@H](Cc2ccncc2)NC(=O)[C@H](Cc2ccc(-c3ccc(C(=O)O)cc3)cc2)NC(=O)[C@H]2C[C@@H](Cc3ccc(F)cc3)CN2C(=O)CNC(=O)[C@H](CCN)NC(=O)[C@H](CCC(N)=O)NC(=O)[C@H](Cc2cncnc2)NC(=O)[C@@](C)(CO)NC(=O)[C@H](Cc2c[nH]c3ccccc23)NC(=O)[C@H](CCC(=O)O)NC(=O)C(C)(C)NC1=O) [SEQ ID NO: 23] | 0.018 nM
10 | cyclo([Bip(4'-COOH)][4Pal][Phe(4-COOH)]G[Pro(cis-4-F)][Trp(βS-Me,4-F)][d(αMeS)]EW[Aib][Ala(pyrimidin-5-yl)]Q[Dab]G[dPro(4R-Bzl(4-F))]) (SMILES C[C@@H](c1c[nH]c2cccc(F)c12)[C@@H]1NC(=O)[C@@H]2C[C@H](F)CN2C(=O)CNC(=O)[C@H](Cc2ccc(C(=O)O)cc2)NC(=O)[C@H](Cc2ccncc2)NC(=O)[C@H](Cc2ccc(-c3ccc(C(=O)O)cc3)cc2)NC(=O)[C@H]2C[C@@H](Cc3ccc(F)cc3)CN2C(=O)CNC(=O)[C@H](CCN)NC(=O)[C@H](CCC(N)=O)NC(=O)[C@H](Cc2cncnc2)NC(=O)C(C)(C)NC(=O)[C@H](Cc2c[nH]c3ccccc23)NC(=O)[C@H](CCC(=O)O)NC(=O)[C@@](C)(CO)NC1=O) [SEQ ID NO: 19] | 0.021 nM
11 | cyclo([Bip(4'-COOH)][4Pal][Phe(4-COOH)]G[Pro(cis-4-F)][Trp(βS-Me,4-F)][Aib]EW[αMeS][Ala(pyrimidin-5-yl)]Q[Dab]G[dPro(4R-Bzl(4-F))]) (SMILES C[C@@H](c1c[nH]c2cccc(F)c12)[C@@H]1NC(=O)[C@@H]2C[C@H](F)CN2C(=O)CNC(=O)[C@H](Cc2ccc(C(=O)O)cc2)NC(=O)[C@H](Cc2ccncc2)NC(=O)[C@H](Cc2ccc(-c3ccc(C(=O)O)cc3)cc2)NC(=O)[C@H]2C[C@@H](Cc3ccc(F)cc3)CN2C(=O)CNC(=O)[C@H](CCN)NC(=O)[C@H](CCC(N)=O)NC(=O)[C@H](Cc2cncnc2)NC(=O)[C@](C)(CO)NC(=O)[C@H](Cc2c[nH]c3ccccc23)NC(=O)[C@H](CCC(=O)O)NC(=O)C(C)(C)NC1=O) [SEQ ID NO: 18] | 0.027 nM
12 | cyclo([Bip(4'-COOH)][4Pal][Phe(4-COOH)]G[Pro(cis-4-F)][Trp(βS-Me,4-F)][Aib]EW[3Aminoazetidine3carboxyl][Ala(pyrimidin-5-yl)]Q[Dab]G[dPro(4R-Bzl(4-F))]) (SMILES C[C@@H](c1c[nH]c2cccc(F)c12)[C@@H]1NC(=O)[C@@H]2C[C@H](F)CN2C(=O)CNC(=O)[C@H](Cc2ccc(C(=O)O)cc2)NC(=O)[C@H](Cc2ccncc2)NC(=O)[C@H](Cc2ccc(-c3ccc(C(=O)O)cc3)cc2)NC(=O)[C@H]2C[C@@H](Cc3ccc(F)cc3)CN2C(=O)CNC(=O)[C@H](CCN)NC(=O)[C@H](CCC(N)=O)NC(=O)[C@H](Cc2cncnc2)NC(=O)C2(CNC2)NC(=O)[C@H](Cc2c[nH]c3ccccc23)NC(=O)[C@H](CCC(=O)O)NC(=O)C(C)(C)NC1=O) [SEQ ID NO: 21] | 0.04 nM
13 | cyclo([Bip(4'-COOH)][Ala(1-bicyclo(1.1.1)pentyl)][Phe(4-COOH)]G[Pro(cis-4-F)][Trp(βS-Me,4-F)][Aib]EW[Aib][Ala(pyrimidin-5-yl)]Q[Dab]G[dPro(4R-Bzl(4-F))]) (SMILES C[C@@H](c1c[nH]c2cccc(F)c12)[C@@H]1NC(=O)[C@@H]2C[C@H](F)CN2C(=O)CNC(=O)[C@H](Cc2ccc(C(=O)O)cc2)NC(=O)[C@H](CC23CC(C2)C3)NC(=O)[C@H](Cc2ccc(-c3ccc(C(=O)O)cc3)cc2)NC(=O)[C@H]2C[C@@H](Cc3ccc(F)cc3)CN2C(=O)CNC(=O)[C@H](CCN)NC(=O)[C@H](CCC(N)=O)NC(=O)[C@H](Cc2cncnc2)NC(=O)C(C)(C)NC(=O)[C@H](Cc2c[nH]c3ccccc23)NC(=O)[C@H](CCC(=O)O)NC(=O)C(C)(C)NC1=O) [SEQ ID NO: 13] | 0.022 nM
14 | cyclo([Bip(4'-COOH)][4Pal][Phe(4-COOH)]G[Pro(cis-4-F)][Trp(βS-Me,4-F)][Aib]EW[Aib][Ala(piperazin-1-yl)]Q[Dab]G[dPro(4R-Bzl(4-F))]) (SMILES C[C@@H](c1c[nH]c2cccc(F)c12)[C@@H]1NC(=O)[C@@H]2C[C@H](F)CN2C(=O)CNC(=O)[C@H](Cc2ccc(C(=O)O)cc2)NC(=O)[C@H](Cc2ccncc2)NC(=O)[C@H](Cc2ccc(-c3ccc(C(=O)O)cc3)cc2)NC(=O)[C@H]2C[C@@H](Cc3ccc(F)cc3)CN2C(=O)CNC(=O)[C@H](CCN)NC(=O)[C@H](CCC(N)=O)NC(=O)[C@H](CN2CCNCC2)NC(=O)C(C)(C)NC(=O)[C@H](Cc2c[nH]c3ccccc23)NC(=O)[C@H](CCC(=O)O)NC(=O)C(C)(C)NC1=O) [SEQ ID NO: 120] | 0.014 nM
